Laboratory results taken from the supplement of paper PMC7125110.
± gives the standard error. For some of these results: This sample holds only a part of the variants without activity.

B1: glmS ribozyme (parent)
chain: AUAAAAGCGCCAGAACUACAGAAAUGUAGUUGACGAGGAGGAGGUUUAUCGAAUUUUCGGCGGAUGCCUCCAAA

Columns and labels:
Settings in all cases: with glucosamine-6-phosphate
glucosamine-6-phosphate [1] = variants of: B1; assay: kcat; higher = faster cleavage; RNA array
Outline: (§1)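 A hybridised Cy3 probe tracked barcoded ribozyme variants, transcribed in situ by E. coli RNA polymerase on sequenced MiSeq chips, at 37 °C. The variants received 40 μM to 10 mM glucosamine-6-phosphate in HEPES/KCl/Mg(OAc)2 buffer. kobs came from decay fits and kcat and KM from weighted Michaelis–Menten fits.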

glucosamine-6-phosphate [2] = variants of: B1; assay: KM; higher = weaker cofactor use; RNA array
Outline: as §1

glucosamine-6-phosphate [3] = variants of: B1; assay: self-cleavage kobs at 40 uM GlcN6P; higher = faster cleavage; RNA array
Outline: as §1

glucosamine-6-phosphate [4] = variants of: B1; assay: self-cleavage kobs at 160 uM GlcN6P; higher = faster cleavage; RNA array
Outline: as §1

glucosamine-6-phosphate [5] = variants of: B1; assay: self-cleavage kobs at 640 uM GlcN6P; higher = faster cleavage; RNA array
Outline: as §1

glucosamine-6-phosphate [6] = variants of: B1; assay: self-cleavage kobs at 2500 uM GlcN6P; higher = faster cleavage; RNA array
Outline: as §1

glucosamine-6-phosphate [7] = variants of: B1; assay: self-cleavage kobs at 10000 uM GlcN6P; higher = faster cleavage; RNA array
Outline: as §1

Variant	kcat (glucosamine-6-phosphate [1]) [s⁻¹]	KM (glucosamine-6-phosphate [2]) [µM]	self-cleavage kobs at 40 uM GlcN6P (glucosamine-6-phosphate [3]) [s⁻¹]	self-cleavage kobs at 160 uM GlcN6P (glucosamine-6-phosphate [4]) [s⁻¹]	self-cleavage kobs at 640 uM GlcN6P (glucosamine-6-phosphate [5]) [s⁻¹]	self-cleavage kobs at 2500 uM GlcN6P (glucosamine-6-phosphate [6]) [s⁻¹]	self-cleavage kobs at 10000 uM GlcN6P (glucosamine-6-phosphate [7]) [s⁻¹]
G9U C61A	0.00139 ± 0.00021	1500 ± 360	4.72e-05 ± 9.6e-06	0.00013 ± 2.7e-05	0.000373 ± 5.1e-05	0.000927 ± 0.00013	0.00121 ± 0.00023
C8U G38A	< 1e-05	371 ± 120	< 1e-05	–	–	–	–
C10U A12C	5.93e-05 ± 3.7e-06	3450 ± 580	–	–	–	2.54e-05 ± 8e-06	4.39e-05 ± 8.1e-06
A12U G40U U45G	0.00175 ± 0.00051	–	0.000216 ± 3.5e-05	–	0.000743 ± 0.00024	0.00239 ± 0.0011	0.00207 ± 0.00036
A6U A15G U30C	0.000345 ± 9.4e-05	–	–	–	5.44e-05 ± 2e-05	0.00023 ± 6.3e-05	0.000255 ± 5.8e-05
G13A A36C	< 1e-05	–	–	–	–	–	< 1e-05
C11G U56G	1.32e-05 ± 5.5e-06	–	< 1e-05	–	< 1e-05	–	–
A12U G41A	0.00189 ± 0.00051	456 ± 210	0.000183 ± 2e-05	0.00038 ± 0.00011	0.00073 ± 0.00014	0.00213 ± 0.0004	0.00216 ± 0.00028
A12C U45A A64U	0.00036 ± 8.2e-05	5800 ± 2500	–	–	2.84e-05 ± 1.2e-05	0.000134 ± 3.1e-05	0.000223 ± 3.2e-05
C11G G32A U69G	3.08e-05 ± 7e-06	–	–	–	–	–	–
C11U G40U C70U	0.000108 ± 1.1e-06	1100 ± 48	–	–	–	7.62e-05 ± 2.5e-05	9.73e-05 ± 2e-05
C8U C50G	0.000208 ± 1.2e-05	31 ± 8	0.00012 ± 2e-05	0.000167 ± 2.4e-05	0.000188 ± 3.3e-05	0.000229 ± 3.5e-05	0.000178 ± 7.7e-05
A12G U47G	0.000821 ± 0.00017	4640 ± 1600	–	1.69e-05 ± 7.8e-06	0.000127 ± 1.6e-05	0.000266 ± 2.7e-05	0.000573 ± 4.8e-05
C11A C67G	5.42e-05 ± 1.1e-05	–	–	3.16e-05 ± 1.1e-05	8.75e-05 ± 1.5e-05	3.8e-05 ± 1e-05	5.65e-05 ± 8.7e-06
C8U G51U C70U	1.2e-05 ± 2.2e-06	–	< 1e-05	–	–	–	–
A12G C67U	0.000655 ± 3.4e-05	3650 ± 310	–	–	9.59e-05 ± 9.7e-06	0.000297 ± 5.2e-05	0.000475 ± 4.3e-05
